Data: patent US20240392013A1, “IL1RAP ANTIBODIES AND USES THEREOF” (STELEXIS THERAPEUTICS, LLC, priority 2021, published 2024)

B1: 74804_12A21B: anti-IL1RAP mAb; VH SEQ ID NO:6, VL SEQ ID NO:23, κ light chain (antibody, V domains shown)
VH: QVQLLQSGAEVKKPGSSVKVSCKASGGTFSIYAIDWVRQAPGQGLEWMGGIIPIFGTANSAQKFQGRVTITADKSTSTAYMELSSLRSEDTAVYYCARNGATSDAFDMWGQGTMVTVSS
VL: EIVLTQSPGTLSLSPGERATLSCRASLSVSSNYLAWFQQRPGQAPRLLIHGVSRRATGIPDRFSGSGSGTDFTLTISRLEPEDFAVYYCQQYGSSPLTFGGGTKVEIK
modifications: 74804_12A21B VH and 74804_29D13A VH; 74804_12A21B VL
B2: 74804_43F04A: anti-IL1RAP mAb; VH SEQ ID NO:7, VL SEQ ID NO:22, κ light chain (antibody, V domains shown)
VH: QVQLLQSGAEVKKPGSSVKVSCKASGGTFSIYAIDWVRQAPGQGLEWMGGIIPIFGTENSAQNFQGRITITADKSTNTAYMELSSLRSEDTAVYYCARNGATSDAFDIWGQGTMVTVFS
VL: EIVLTQSPGTLSLSPGERATLSCRASLSVSSNYLAWFQQRPGQAPRLLIYGVSRRATGIPDRFSGSGSGTDFTLTISRLEPEDFAVYYCQQYGSSPLTFGGGTKVEIK
modifications: 74804_43F04A VH; 74804_07K10A VL, 74804_29D13A VL and 74804_43F04A VL

Assays:
[1] = system: IL36-induced downstream signaling (phospho-ERK, AKT, p38, NFκB) in HPAC, CAL33, 5637 cells; assay: IL36 signaling in solid tumor cancer cells, Western blot; type: cell-based; settings: IL36γ, antibody 20 μg/ml
Experimental: (§1) AML patient samples or cancer cells (AML, chronic myelogenous leukemia (CML), pancreatic, head and neck squamous cell carcinoma (HNSCC), bladder, non-small-cell lung carcinoma (NSCLC), colorectal and triple-negative breast cancer (TNBC)) were seeded in 6-well plates (5×10^5 cells/well) and incubated overnight at 37° C./5% CO2 in humified incubator. In experiments conducted in cancer cell lines, cells were washed 2× with PBS and serum-starved for 3 hours. Following, cells were treated with IL1RAP antibodies at concentration of 20 μg/ml and incubated for 1 h at 37° C./5% CO2 in humidified incubator. After 1 h, cells were treated with IL1β (Invivogen, cat: rcyec-hil1b), IL33 (Adipogen, cat: AG-40B-0160-C010) or IL36 cytokines (R@D, cat: 6836IL) at 100 ng/ml and incubated for 15 more minutes. Cells were harvested on ice after 1× wash with cold PBS and were centrifuged for 5 minutes at 5000 rpm at 4° C. Cells were then lysed with NP-40 buffer for 5 minutes on ice and centrifuged for 15 minutes at 15000 rpm at 4° C. Supernatants were collected and protein concentrations were determined by BCA (Thermofisher, Cat #PI23225). […] After 3× washes, ECL was applied (Thermofisher, Cat #32106) and proteins were detected after exposure to autoradioraphic films (Worldwide medical products, Cat #41101001) and protein intensity was quantitated using ImageJ software.

[2] = system: THP-1 cells; assay: Jurkat-Lucia NFAT-CD16 ADCC reporter assay against THP-1 cells; type: cell-based, human; settings: THP-1 target cells
Text: Methods: ADCC activity is mediated through binding of NK cell's CD16 receptors to the Fc region of antibodies. A Jurkat-Lucia NFAT-CD16 ADCC Reporter cell assay (Invivogen, Cat #jktl-nfat-cd16; https://www.invivogen.com/jurkat-lucia-nfat-adcc-adcp-cells) was used to analyze IL1RAP mAb STLX2012 for ADCC activity. Briefly, the Jurkat cell line was engineered to express the cell surface Fc receptor CD16A (FcγRIIIA) and the Lucia luciferase reporter gene. ADCC is triggered by CD16A cross-linking upon antigen-bound antibody binding at the surface of immune effector cells. Cells are maintained in the presence of zeocin (100 μg/ml) and blasticidin (10 μg/ml).

[3] = system: AML cells (THP-1); assay: Proliferation of AML cells (THP-1), Cell-Titer Glo; type: cell-based, human; settings: 66 nM, 4 days
Experimental: (§2) AML patient samples or cancer cells (AML and CML) were plated at density of 3×10^3 cells/well in two 96-well plates and incubated overnight at 37° C./5% CO2 in humidified incubator. The next day (Day 1) cells in one of the plates were treated with IL1RAP antibody at 10-150 μg/ml at a total volume of 100 μl. Plates were kept at 37° C./5% CO2 in humified for 3-6 days. Cells treated with vehicle or IgG served as controls and every treatment was conducted in triplicates. The second plate was treated on Day 1 with media and cell proliferation was measured on the same day by CellTiter-Glo (Promega, Cat #G7572). In more details, wells were mixed with equal volume (100 μl) of CellTiter-Glo and agitated for 2 minutes followed by 10 minutes incubation at room temperature in the dark. Luminescence signal was measured in Cytation™ (Biotek) plate reader. After 3-6 days, cell proliferation in the […] plates was measured separately in the same way.

[4] = system: IL1-induced downstream signaling (phospho-NFκB) in K562 cells; assay: IL1 signaling in CML (K562) cells, Western blot; type: cell-based, human; settings: antibody 20 μg/ml, IL1β 100 ng/ml
Experimental: as §1

[5] = system: CML cells (K562); assay: Proliferation of CML cells (K562), Cell-Titer Glo; type: cell-based, human; settings: 333 nM, 3 days
Experimental: as §2

[6] = system: AML patient-derived samples; assay: Colony formation of AML patient-derived samples, alone or with Azacitidine or Venetoclax; type: cell-based, human; settings: 2 weeks
Experimental: Methods: Clonogenicity of AML patient-derived samples were assayed using STLX2012 alone or in combination with Azacitindine (Aza) or Venetoclax (Ven). AML patient-derived samples were plated in MethoCult media and cultured in the presence of STLX2012 (50 μg/mL) or control IgG1 antibody (50 μg/mL), plus or minus Azacitidine (100 nM) or Venetoclax (100 nM), for 2 weeks. Colony numbers were counted manually using an inverted microscope and normalized to the control IgG1 control.

[7] = system: IL33-induced NFκB activity; assay: HEK-BlueIL33 NFκB Reporter Assay; type: cell-based, human; settings: nM range, read-out: IC50, inhibition of IL33-induced NFκB activity
Text: HEK-Blue IL33 (Invivogen, Cat #hkb-hil33) cell line was used to monitor NFκB activity upon stimulation with IL33 cytokine. The secreted embryonic alkaline phosphatase reporter gene (SEAP) is inducible expressed under the control of IFN-β minimal promoter fused to NFκB/AP-1. HEK-BlueIL33 cells were also generated upon stable transfection with human IL1RL1 (ST2) gene. Specificity to IL33 cytokine was achieved by blockage of TNF-α and IL1 response. Cells are maintained in the presence of hygromycin (200 μg/ml), zeocin (100 μg/ml) and blasticidin (10 μg/ml).
For the functional assay, cells were plated at a density of 5×10^4 cells/well in 96-well plates. Cells were treated with each antibody at the highest concentration of 200 μg/ml followed by seven serial 1:3 dilutions and incubated for 45 minutes at 37° C./5% CO^2 in humified incubator. Cells were then stimulated with IL33 (12 μM) and incubated overnight at 37° C./5% CO2 in humified incubator. Every treatment was conducted in triplicates. Following, supernatants from each well were mixed with Quanti-Blue substrate (Invivogen, Cat #rep-qb1) according to manufacturer's recommendations and secreted SEAP was measured using spectrophotometer at 650 nm.

Molecule | Inhibition of IL36 signaling (phosphorylation of ERK, AKT, p38 and NFκB) [1] | ADCC activity (reporter) [2] | Inhibition of cell proliferation [3] | Inhibition of IL1 signaling (phosphorylation of NFκB) [4] | Inhibition of cell proliferation [5] | Colony numbers, combined with Azacitidine ([6]; STLX2012 50 μg/mL + Azacitidine 100 nM) | Colony numbers, combined with Venetoclax ([6]; STLX2012 50 μg/mL + Venetoclax 100 nM) | Colony numbers ([6]; STLX2012 50 μg/mL alone, vs control IgG1) | IC50 [7] [nM]
B1 | Inhibition of IL36 signaling in solid tumor cancer cells | showed ADCC activity | inhibited cell proliferation | inhibited IL1 signaling in these CML (K562) cells | inhibited cell proliferation | Further reduction in colony numbers | Further reduction in colony numbers | decreased colony numbers in AML patient samples | 
B2 |  |  |  |  |  |  |  |  | 9.62
